Source: PMC9496542

How the values were obtained:
Experiment in all cases: NMR
Conditions in all cases: 298 K, 150 mM NaCl, 20 mM HEPES, 1 mM TCEP (working buffer), apo (no Ni(II)), intrinsically disordered, Cys394 reduced
[1] = biological target: His355 (UniProt position 355, …)
[2] = biological target: His345 (UniProt position 345, …)
[3] = biological target: His371 (UniProt position 371, …)
[4] = biological target: His365 (UniProt position 365, …)

B1: N-myc downstream-regulated gene 1 protein, C-terminal intrinsically disordered region (hNDRG1*C) (Homo sapiens) (protein)
chain: GMGYMPSASMTRLMRSRTASGSSVTSLDGTRSRSHTSEGTRSRSHTSEGTRSRSHTSEGAHLDITPNSGAAGNSAGPKSMEVSC
[1]
  pKa: 6.65
[2]
  pKa: 6.65
[3]
  pKa: 6.84
[4]
  pKa: 6.72
